Measured values published in patent US20250368734A1 (ANTENGENE BIOLOGICS, published 2025).
Read-outs that look alike come from different tables or passages of the source.

T1: mouse GPRC5D (mouse, UniProt Q9JIL6 1-344)
T1 construct: whole, on cells; HEK293T-mGPRC5D cells; also called mGPRC5D; murine GPRC5D
T1 sequence (looked up): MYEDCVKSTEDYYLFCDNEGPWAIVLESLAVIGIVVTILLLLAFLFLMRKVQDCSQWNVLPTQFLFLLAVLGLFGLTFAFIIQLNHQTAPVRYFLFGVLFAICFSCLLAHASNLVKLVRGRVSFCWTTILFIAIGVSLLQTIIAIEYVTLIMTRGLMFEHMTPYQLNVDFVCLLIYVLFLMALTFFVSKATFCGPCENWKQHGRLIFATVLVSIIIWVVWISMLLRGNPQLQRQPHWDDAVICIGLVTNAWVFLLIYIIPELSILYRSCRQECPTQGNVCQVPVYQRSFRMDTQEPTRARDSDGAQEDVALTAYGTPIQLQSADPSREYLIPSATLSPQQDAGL


Columns and labels:
human GPRC5D [1] = molecular target: T2, human GPRC5D (human, UniProt Q9NZD1 1-345); test: FACS, HEK293T-hGPRC5D cells; note: test concentration or dose not given here
T2 construct: whole, on cells; also called hGPRC5D; G-protein coupled receptor family C group 5 member D
T2 sequence (Q9NZD1 whole entry): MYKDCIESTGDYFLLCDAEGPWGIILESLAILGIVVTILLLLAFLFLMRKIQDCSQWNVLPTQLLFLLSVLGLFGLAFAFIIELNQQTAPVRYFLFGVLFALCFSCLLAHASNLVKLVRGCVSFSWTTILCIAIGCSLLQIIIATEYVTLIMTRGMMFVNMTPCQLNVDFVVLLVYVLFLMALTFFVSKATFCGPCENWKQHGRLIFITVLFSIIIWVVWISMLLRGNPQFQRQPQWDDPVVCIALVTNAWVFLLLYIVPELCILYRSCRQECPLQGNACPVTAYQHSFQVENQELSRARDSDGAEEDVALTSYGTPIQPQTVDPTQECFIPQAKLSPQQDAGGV
In short: (§1)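 Subclone antibodies incubated with parental or GPRC5D-overexpressing HEK293T cells (human, cynomolgus, mouse) and OPM2 cells; bound antibody detected with fluorescent dye-conjugated secondary antibody. Median fluorescence intensity read by FACS.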

mouse GPRC5D [2] = molecular target: T1, mouse GPRC5D; test: FACS, HEK293T-mGPRC5D cells
Source text: (§2) The subcloning plates were screened by Mirrorball assay and the subclones with good binding ability were expanded to 24-wells for confirmation tests. The specificity and cross-reactivity of these subclones were confirmed with FACS analysis. Briefly, parental HEK293T, HEK293T cells stably over-expressing human GPRC5D protein (i.e., HEK293T-hGPRC5D), HEK293T cells stably over-expressing cynomolgus monkey GPRC5D protein (i.e., HEK293T-cynoGPRC5D), HEK293T cells stably over-expressing mouse GPRC5D protein (i.e., HEK293T-mGPRC5D), and OPM2 cells were incubated with antibodies produced by each subclone, respectively. Fluorescent dye-conjugated secondary antibody was used to detect the binding of the primary antibody with the cells. Median fluorescence intensity (MFI) was measured by FACS analysis,
(§3) As a result, 21 antibodies were discovered with unique sequences showing positive binding with HEK293T-hGPRC5D and OPM2 cells. Among which, some clones could also bind with HEK293T-cynoGPRC5D and/or HEK293T-mGPRC5D. […] ATG596 was a positive human IgG1 control antibody which comprises a VH region having an amino acid sequence as set forth in SEQ ID NO: 199, and a VL region having an amino acid sequence as set forth in SEQ ID NO: 200.

human GPRC5D [3] = molecular target: T2, human GPRC5D; test: FACS, OPM-2 cells; note: test concentration or dose not given here
In short: as §1

cynomolgus monkey GPRC5D [4] = molecular target: T3, cynomolgus monkey GPRC5D (cynomolgus monkey); test: FACS, HEK293T-cynoGPRC5D cells
T3 construct: whole, on cells; HEK293T-cynoGPRC5D cells; also called cynoGPRC5D
Source text: as §2, §3

human GPRC5D [5] = molecular target: T2, human GPRC5D; test: cell-based or functional assay
mouse GPRC5D [6] = molecular target: T1, mouse GPRC5D; test: FACS, HEK293T-mGPRC5D cells; remark: listed apart in the source
Source text: as §2, §3

mouse GPRC5D [7] = molecular target: T1, mouse GPRC5D; test: FACS, HEK293T-mGPRC5D cells; remark: listed apart in the source
cynomolgus monkey GPRC5D [8] = molecular target: T3, cynomolgus monkey GPRC5D; test: FACS, HEK293T-cynoGPRC5D cells; remark: listed apart in the source
In short: as §1

cynomolgus monkey GPRC5D [9] = molecular target: T3, cynomolgus monkey GPRC5D; test: FACS, HEK293T-cynoGPRC5D cells; remark: listed apart in the source

% Positive (human GPRC5D [1]) [%]	MFI (human GPRC5D [1])	% Positive (mouse GPRC5D [2]) [%]	MFI (mouse GPRC5D [2])	% Positive (human GPRC5D [3]) [%]	MFI (human GPRC5D [3])	% Positive (cynomolgus monkey GPRC5D [4]) [%]	MFI (cynomolgus monkey GPRC5D [4])	EC50 (human GPRC5D [5]) [nM]	% Positive (mouse GPRC5D [6]) [%]	MFI (mouse GPRC5D [6])	EC50 (mouse GPRC5D [7]) [nM]	Top (mouse GPRC5D [7])	% Positive (cynomolgus monkey GPRC5D [8]) [%]	MFI (cynomolgus monkey GPRC5D [8])	EC50 (cynomolgus monkey GPRC5D [9]) [nM]	Top (cynomolgus monkey GPRC5D [9])	Binder	Top killing % (human GPRC5D [5]) [%]
99.8	27200	68.4	370	97.9	1150	1	116										26E2H6 (antibody, V domains shown, Mouse monoclonal antibody from hybridoma subclone) VH: EVQLVESGGDLVKPGGSLKLSCAASGFTFSSYGMSWVRQTPDKRLEWVATISSGGSYTYYPDSVKGRFTISRDNAKNTLYLQMSSLKSEDTAMYYCARHATDYWGQGTTLTVSS VL: QIVLTQSPAIMSASPGEKVTMTCSASSSVSYMHWYQQKSGTSPKRWIYDTSKLASGVPARFSGSGSGTSYSLTISSMEAEDAATYYCQQWSSNPLTFGAGTKLELK	
98.7	32100	99	7080	98.4	1070	96.2	24700										12G12C2 (antibody, V domains shown, Mouse monoclonal antibody from hybridoma subclone) VH: QIQLVQSGPELKMPGETVKISCKASGYTFTTYGLSWVKQAPGKGLKWMGWINTFSGVPIYADDFKGRFAFSLETSASTAYLQINNLKNEDTATYFCARWGIRQRGDYWGQGATLTVSS VL: QIVLTQSPAIMSASPGEKVTMTCSASSSVSYLHWYQQKSGTSPKRWIYDTSKLASGVPVRFSGSGSETSYSLTISSMEAEDAATYYCQQWTSNPPTFGGGTKLEIK	
99.6	25100	1.6	121	97.9	1120	99.8	18000										28H9C12 (antibody, V domains shown, Mouse monoclonal antibody from hybridoma subclone; also called 281H9C12) VH: EVQLVESGGGLVKPGGSLKLSCAASGFTFSDYGMHWVRQAPEKGLEWVAYISSGSSTIYYADTVKGRFTISRDNAKNTLFLQMTSLRSEDTAIYYCVRRPWYFDVWGTGTTVTVSS VL: DVLMTQTPLSLPVSLGDQASISCRSSQSIVHSNGNTYLQWYLQKPGQSPKLLIYKVSNRFSGVPDRFSGSGSGTDFTLKISRLEAEDLGVYYCFQGSHVPFTFGSGTKLEIK	
99.9	38900	82.7	592	99.5	2020	99.2	31300										20C4E1 (antibody, V domains shown, Mouse monoclonal antibody from hybridoma subclone) VH: EVRLVESGGALVRPGGSLKLSCAASGFTFSDYGMHWVRQAPEKGLEWIAFISSVSFTIYYADTVKGRFTISRDNAKNTLFLQMTSLRSEDTALYYCTRLGPHWYFDVWGTGTTVTVSS VL: DVVLTQTPLSLPVSLGDQASISCRSSQSLVYSNGNTYLHWFLQKPGQSPQLLIYKVSNRFSGVPDRFSGSGSGTDFTLKISRVEAEDLGVYFCSQSTPVPTFGGGTKLEIK	
								1.66									Bis-116F1G6 (bispecific antibody) chain 1: EVQLQHSGPELVKPGASVKMSCKASGYTFTTYVMHWVKQKPGQGLEWIGYINPYNDGTKYNEKFKGKATLTSDKSSSTAYMELSSLTSEDSAVYYCARGGVRRYFDVWGAGTTVTVSS chain 2: GGGGSGGGGSGGGGSEVQLVESGGGLVQPGRSLRLSCAASGFTFDNYAMHWVRQAPGKGLEWVSGISWNSGSIGYADSVKGRFTISRDNAKNSLYLQMNSLRAEDTALYYCAKDSRGYGDYSRGGAYWGQGTLVTVSSEIVMTQSPATLSVSPGERATLSCRASQSVSSNLAWYQQKPGQAPRLLIYGASTRATGIPARFSGSGSGTEFTLTISSLQSEDFAVYYCQQYNNWPWTFGQGTKVEIK chain 3: DIQMTQSPSSLSASLGERVSLTCRASQDIGSNLNWLQQEPNGTIKRLIYATFTLDSGVPKRFSGSRSGSDYSLTISSLESEDFVDYYCLQYASFPYTFGGGTKLEIK	71.8
99.5	32800	14.6	150	99.4	1740	99.7	7760										15D6G2 (antibody, V domains shown, Mouse monoclonal antibody from hybridoma subclone) VH: EVQLVESGGDLVKPGGYLRLSCAASGFTFSSHGMSWVRQTPDKRLEWVATISSGGRNTYYPDSVKGRFTISRDNAKNILYLQMSSLKSEDTAMFYCTRHSGDAMDYWGQGTSVTVSS VL: DILLTQSPAILSVSPGERVSFSCRASQSIGTNIHWYQQRTNGSPRLLIKYASESISGIPSRFSGSGSGTDFTLSINSVESEDIADYYCQQSKSWPTFGGGTKLEIK	
		98.2	14600			98.5	7400		97.3	12400	25.5	45600	98.6	6580	26.6	22500	ATG596 (antibody, V domains shown, Human IgG1; also called benchmark antibody ATG596; positive human IgG1 control antibody) VH: QVQLVQSGAEVKKPGASVKVSCKASGYSFTGYTMNWVRQAPGQGLEWMGLINPYNSDTNYAQKLQGRVTMTTDTSTSTAYMELRSLRSDDTAVYYCARVALRVALDYWGQGTLVTVSS VL: DIQMTQSPSSLSASVGDRVTITCKASQNVATHVGWYQQKPGKAPKRLIYSASYRYSGVPSRFSGSGSGTEFTLTISNLQPEDFATYYCQQYNRYPYTFGQGTKLEIK	
99.3	31800			96.3	791	96.6	3110										36A3G8 (antibody, V domains shown, Mouse monoclonal antibody from hybridoma subclone) VH: QVQLQQSGAELARPGASVKMSCKASGYTFTTYTMHWIKQRPGQDLEWIGFINPSSGYTKYNQNFKDKATLTADKSSTTAYMQLNSLTSEDSAVYYCASPYGNIYFDVWGTGTTVTVSS VL: DIVMTQSQKFMSTAVGDRVSITCKASQNVGTAVAWYQQKPGQSPKLLIYSASNRYTGVPDRFTGSGSGTDFTLTISNMQSEDLADYFCQQYSSYPLTFGAGTKLELK	
